Experimental data as given in article PMC5737657 (Nucleic Acids Research, 2017).

Target: the molecule itself
Experiment: crystal structure

B1: VapC26 toxin with N-terminal (His)6 tag (native, co-expressed with VapB26) (natural protein)
chain: MIIDTSALLAYFDAAEPDHAAVSECIDSSADALVVSPYVVAELDYLVATRVGVDAELAVLRELAGGAWELANCGAAEIEQAARIVTKYQDQRIGIADAANVVLADRYRTRTILTLDRRHFSALRPIGGGRFTVIP
Q: Does B1 bind?
A: Result: binds
